Response (% ZapD in pellet) and response (% FtsZ in pellet) data for ten variants are collected here from article PMC4835091.

B1: FtsZ (purified, WT) [E. coli] / ZapD (purified) [E. coli] (parent)
chain 1: MQTQVLFEHPLNEKMRTWLRIEFLIQQLTVNLPIVDHAGALHFFRNVSELLDVFERGEVRTELLKELDRQQRKLQTWIGVPGVDQSRIEALIQQLKAAGSVLISAPRIGQFLREDRLIALVRQRLSIPGGCCSFDLPTLHIWLHLPQAQRDSQVETWIASLNPLTQALTMVLDLIRQSAPFRKQTSLNGFYQDNGGDADLLRLNLSLDSQLYPQISGHKSRFAIRFMPLDTENGQVPERLDFELACC
chain 2: MFEPMELTNDAVIKVIGVGGGGGNAVEHMVRERIEGVEFFAVNTDAQALRKTAVGQTIQIGSGITKGLGAGANPEVGRNAADEDRDALRAALEGADMVFIAAGMGGGTGTGAAPVVAEVAKDLGILTVAVVTKPFNFEGKKRMAFAEQGITELSKHVDSLITIPNDKLLKVLGRGISLLDAFGAANDVLKGAVQGIAELITRPGLMNVDFADVRTVMSEMGYAMMGSGVASGEDRAEEAAEMAISSPLLEDIDLSGARGVLVNITAGFDLRLDEFETVGNTIRAFASDNATVVIGTSLDPDMNDELRVTVVATGIGMDKRPEITLVTNKQVQQPVMDRYQQHGMAPLTQEQKPVAKVVNDNAPQTAKEPDYLDIPAFLRKQAD
B2: FtsZ (purified, WT) [E. coli] / itself (parent)
chain: B1 chain 2

Variants of B1 are the subject of experiment [1]. Briefly: co-sedimentation assay, SDS-PAGE quantification. The conditions noted are these: with ZapD (purified) [E. coli], 50 mM K-MOPS pH 6.5, 50 mM KCl, 2.5 mM MgCl2, 1 mM GTP, 3 µM BSA, read off a plot.
The variants in the experiment “itself” derive from B2. Description: sedimentation (co-pelleting) assay, SDS-PAGE quantification. Conditions: with itself, 50 mM K-MOPS pH 6.5, 50 mM KCl, 2.5 mM MgCl2, 1 mM GTP, 3 µM BSA, read off a plot.

As for chain 2 K380R D383R, the response (% ZapD in pellet) in experiment [1] (5 µM FtsZ with ZapD at 1:0.2) came to 16; in experiment [1] (5 µM FtsZ with ZapD at 1:1), 35.
Turning to chain 2 K380D D383K, the response (% ZapD in pellet) in experiment [1] (5 µM FtsZ with ZapD at 1:1) was found to be 49.
In the case of chain 2 D383K, the response (% ZapD in pellet) in experiment [1] (5 µM FtsZ with ZapD at 1:0.2) amounted to 71; in experiment [1] (5 µM FtsZ with ZapD at 1:1), 60.
For chain 2 K380D, the response (% ZapD in pellet) in experiment [1] (5 µM FtsZ with ZapD at 1:0.2) came out at 14; in experiment [1] (5 µM FtsZ with ZapD at 1:1), 10.
In the case of chain 2 K380Q A382Q D383Q, the response (% ZapD in pellet) in experiment [1] (5 µM FtsZ with ZapD at 1:0.2) and in experiment [1] (5 µM FtsZ with ZapD at 1:1) was 42 each time.
On to chain 1 D383K, for which the response (% FtsZ in pellet) was found to be 45 with itself (5 µM FtsZ with ZapD at 1:0.2); 66 in the experiment with itself (5 µM FtsZ with ZapD at 1:1); 27 with itself (5 µM FtsZ, no ZapD).
For the variant chain 1 K380R D383R, the response (% FtsZ in pellet) in the experiment with itself (5 µM FtsZ with ZapD at 1:0.2) amounted to 39; with itself (5 µM FtsZ with ZapD at 1:1), 50; with itself (5 µM FtsZ, no ZapD), 23.
Consider chain 1 K380D D383K, for which the response (% FtsZ in pellet) with itself (5 µM FtsZ with ZapD at 1:0.2) turned out to be 43; in the experiment with itself (5 µM FtsZ with ZapD at 1:1) it was 64; with itself (5 µM FtsZ, no ZapD) it was 23.
The matching figures for chain 1 K380Q A382Q D383Q: 43, 69 and 24.
As to chain 1 K380D, the response (% FtsZ in pellet) came to 29 in the experiment with itself (5 µM FtsZ with ZapD at 1:0.2); 41 with itself (5 µM FtsZ with ZapD at 1:1); 27 with itself (5 µM FtsZ, no ZapD).
